From the supplement of paper PMC12764529 come the findings set out here.

Data set [1] is described as follows: folding stability dG unfold from trypsin proteolysis; higher = more stable. In short, it runs like this:
(§1)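 Unfolding free energy was derived, per protease or combined, against a sequence-predicted unfolded-state K50 and a shared folded-state K50, starting from K50 inferred by Bayesian fitting of sequencing counts. Digestion with trypsin and chymotrypsin was carried out on designed mini-proteins under 80 residues without cysteine in a PA-tagged cDNA display construct. Only designs with AlphaFold2 dimer inter-PAE above 15 were kept.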

The nature of data set [2]: folding stability dG unfold from chymotrypsin proteolysis; higher = more stable. In short, it runs like this:
as §1

Data set [3] is described as follows: folding stability dG unfold (combined trypsin and chymotrypsin); higher = more stable. The essentials: as §1

± gives the half width of the 95% confidence interval.

With “SMKPGETVTLEVVIRVKKENMTLEEIAEEVANAIKALLPPGAKITIEVVDIEYDEETDEVYVKLKITIENSA [r9_706_TrROS_Hall]”, the “folding stability dG unfold” value in data set [1] turned out to be 4.17 ± 0.28 kcal/mol; in data set [2], 2.64 ± 0.23 kcal/mol; in data set [3], 3.01 ± 0.32 kcal/mol.
For “SMKPPVKVRIRIYNPETGEEIATIEIEFLPDGTVKVTIEIDGKKYEIEMSLDELLEALKKLPFKIVEIEPSA [r9_470_TrROS_Hall]”, in that order: 3.72 ± 0.12 kcal/mol, 3.35 ± 0.064 kcal/mol and 3.57 ± 0.1 kcal/mol.
Consider “SMKRVLILVPDPSVDKEELIEELKKKGFEDIEVVDSEEELKKLPENIDVVVIVRDGEVEVREVPPVEALKSA [r9_750_JUSTAS]”, for which the “folding stability dG unfold” value in data set [1] came to 0.698 ± 0.037 kcal/mol; in data set [2] it was 0.585 ± 0.1 kcal/mol; in data set [3], 0.706 ± 0.11 kcal/mol.
For “SMKTLIVEGMTPEEIRALAEEAAKKGEEVEIEIVVKDNEEIKEALEEAGVEVEEVEDPETKEKVLKVTVKSA [r9_759_TrROS_Hall]”, in that order: 0.254 ± 0.044 kcal/mol, 0.412 ± 0.072 kcal/mol and 0.327 ± 0.14 kcal/mol.
For “SMKVEIPPELVEAIEKALAEKKPGEEVEIEFEHPDGPLIRVRIEKDGRVRIEVFEHPDKLIAEFEFEPKPSA [r9_132_TrMRF]”, in that order: 3.31 ± 0.095 kcal/mol, 2.98 ± 0.087 kcal/mol and 3.14 ± 0.077 kcal/mol.
For “SMKYRITLTITKGDEDIVVEIETESEEEAKEKFKKAISPELLKALPEDAKVEITVEPEPLVIPEPGVPLPSA [r9_111_JUSTAS]”, in that order: 0.465 ± 0.038 kcal/mol, 1.22 ± 0.12 kcal/mol and 0.995 ± 0.062 kcal/mol.
“SMLEEVLERIEAMPPGSVVKVTLTFPDGTKRTETLKLSAEEVKEKLEKIKKENPDIKIEVKVEVYSTEEESA [r9_37_JUSTAS]”: the figures for the “folding stability dG unfold” value in data set [1], in data set [2] and in data set [3] were 3.33 ± 0.39 kcal/mol, 4.05 ± 0.36 kcal/mol and 4.39 ± 0.42 kcal/mol, respectively.
In the case of “SMLEKIEKAIESGNDGILVPLKLTPEEFKKVRAYLEELGFTLLSEEELAVGPVPVYELTFKVNTKTGEAASA [r9_498_JUSTAS]”, the “folding stability dG unfold” value is 1.88 ± 0.066 kcal/mol in data set [1], 2.44 ± 0.1 kcal/mol in data set [2] and 2.17 ± 0.13 kcal/mol in data set [3].
For “SMLNIPSDWKVITIKLEYKVEPGVSEEEVKEKAIEELKKKFPKNTKIEVEVTPDPETGTVTIKITIIIKKSA [r9_657_JUSTAS]”, in that order: 2.15 ± 0.062 kcal/mol, 1.38 ± 0.056 kcal/mol and 1.84 ± 0.1 kcal/mol.
As to “SMMKIRIVNKETKEEIEEIEIEKNEDGSYTIKIKIKKNGKTYEIEIKLPKGMKIEELLKKLGIEKAEIEPSA [r9_492_TrROS_Hall]”, the figures for the “folding stability dG unfold” value in data set [1], in data set [2] and in data set [3] were 1.55 ± 0.049 kcal/mol, 1.98 ± 0.11 kcal/mol and 1.79 ± 0.11 kcal/mol, respectively.
For “SMMYLVKIKVRNKETGELVEEIELVVESEEEAEKIAEELAEELGLEVEVEVKRISPEELEDPEILKELLESA [r9_864_TrROS_Hall]”, in that order: 2.77 ± 0.13 kcal/mol, 3.53 ± 0.088 kcal/mol and 3.27 ± 0.23 kcal/mol.
For “SMMYLVNLRVEVYKDGKLVEEKEIAIAAPVEEALKIAEAIKESHPDAEVKVEIEVYEIPEDDPEFKEAFASA [r9_782_TrMRF]”, in that order: 2.25 ± 0.082 kcal/mol, 2.87 ± 0.033 kcal/mol and 2.68 ± 0.089 kcal/mol.
Turning to “SMNIISIDIEPYRTGGEPWIYIPIQVPDENMPPSELEEIVEEIFEKLGLPINVKVHRDPNSGTIWIMIRLSA [r9_717_TrROS]”, the results for the “folding stability dG unfold” value in data set [1], in data set [2] and in data set [3] were 2.72 ± 0.15 kcal/mol, 2.79 ± 0.13 kcal/mol and 2.75 ± 0.27 kcal/mol, respectively.
For “SMNITVTYDPETDTVTIEIDDEEIDPETLRELLDAIPPNVKRVIIHVDHPETARTVEELAKETGLPVEIASA [r9_919_TrMRF]”, in that order: 3.96 ± 0.077 kcal/mol, 3.2 ± 0.13 kcal/mol and 3.97 ± 0.12 kcal/mol.
Regarding “SMPKIEVKIEYDEETGEITVEIRVPETEEEALEALRKLAEEAGLEVEVEEVEIEEVDGELVIRVKVRIKPSA [r9_164_TrROS_Hall]”, the results for the “folding stability dG unfold” value in data set [1], in data set [2] and in data set [3] were 3.57 ± 0.21 kcal/mol, 2.44 ± 0.16 kcal/mol and 3.08 ± 0.28 kcal/mol, respectively.
For “SMPLTPAEVAEARARAAREAAEAAAGVPVTVRVTLSTPDRELTVTLPATESLAAVMKAHPDVTVEVEVEASA [r9_513_JUSTAS]”, in that order: 0.459 ± 0.043 kcal/mol, 0.0452 ± 0.11 kcal/mol and 0.284 ± 0.059 kcal/mol.
For “SMPLTPEEVEEVVEAVAKELEEETGEEVKAEVFYDPETGRFYAVIELPDGRRVRIEIDPETGEVRVEVEASA [r9_9_TrMRF]”, in that order: 3.8 ± 0.13 kcal/mol, 4.17 ± 0.15 kcal/mol and 4.02 ± 0.1 kcal/mol.
Regarding “SMPPDEKLIFVTRFKVKPDNPEDIEKALAAARETVRALLEELGLPEVKEVRVLRVEVHPDGYVTVVVEVGSA [r9_754_TrMRF]”, the results for the “folding stability dG unfold” value in data set [1], in data set [2] and in data set [3] were 4.05 ± 0.11 kcal/mol, 4.73 ± 0.1 kcal/mol and 4.49 ± 0.08 kcal/mol, respectively.
For “SMPRLVATPRPDGSVLVLLEAPPERPEEIAEEIRERLGVPLRVVRIEPVPERVGDRPRLRYRVLIEVDVRSA [r9_431_TrMRF]”, in that order: 0.96 ± 0.077 kcal/mol, 0.923 ± 0.12 kcal/mol and 0.976 ± 0.095 kcal/mol.
In the case of “SMPVTITITLHKDPNSDVIPVRLEMTDSAGNPIGEREIDYTTTEEEARERAVALAEEIAAATGYTIEFGESA [r9_31_JUSTAS]”, the “folding stability dG unfold” value in data set [1] was 1.27 ± 0.069 kcal/mol; in data set [2], 0.266 ± 0.22 kcal/mol; in data set [3], 0.8 ± 0.11 kcal/mol.
For “SMPVTITRDFDIPLATLSVEEVKAAIEEALKAEGLNVVEPKLDEKLVKELEEAPPSSTLPVKVTVLVEPASA [r9_1163_JUSTAS]”, in that order: 0.35 ± 0.074 kcal/mol, 0.715 ± 0.049 kcal/mol and 0.62 ± 0.15 kcal/mol.
For “SMREIPPEDLKKAANAYLNGDKEKVEQLFKDAGFKKVVLEEVEGDGEVLFVALVEHPDGPTVLTVSSSDFSA [r9_783_TrMRF]”, in that order: 0.7 ± 0.064 kcal/mol, 1.33 ± 0.1 kcal/mol and 1.04 ± 0.25 kcal/mol.
For “SMRIHDSNGQSYTIMIRTPDPNVTPEKIVKAIDEAGYKVTEIQRPPEKGHVHINIRVRDRERAIEAIKELSA [r9_1154_TrROS]”, in that order: 0.231 ± 0.12 kcal/mol, -0.253 ± 0.18 kcal/mol and 0.0402 ± 0.12 kcal/mol.
Consider “SMRKVKRKVTLEITIKVPESVLKPIPDADYYTYPFDDKLVKPDAVIPRTVTITGPYTEEEVEKLVKEILSSA [r9_165_JUSTAS]”, for which the figures for the “folding stability dG unfold” value in data set [1], in data set [2] and in data set [3] were 0.749 ± 0.2 kcal/mol, -0.613 ± 0.48 kcal/mol and 0.249 ± 0.25 kcal/mol, respectively.
For “SMRVTIMIPVPPGLKNLKLEFKLPYPDGREVDVDIQVDPNYITITVEMNNPGQMDWVQERFQEEIEKLLGSA [r9_790_TrROS]”, in that order: 3.24 ± 0.1 kcal/mol, 4.09 ± 0.15 kcal/mol and 3.64 ± 0.16 kcal/mol.
For “SMSMEEAMEWAEENPDRPVIFINPEDWYIMIYNPKKGKMEMRPITSPEEALEELDDENIDRIYIVPADEISA [r9_775_TrROS]”, in that order: 1.21 ± 0.064 kcal/mol, 2.31 ± 0.061 kcal/mol and 1.96 ± 0.088 kcal/mol.
For “SMSPEALKKANEFAEYIAEHFKNWNIEIDVEVEWDPDGEITIRAKIEMRPPPPPPPKPKRDPNGKWKWEGSA [r9_82_TrROS]”, in that order: 0.943 ± 0.079 kcal/mol, 2.3 ± 0.23 kcal/mol and 1.84 ± 0.51 kcal/mol.
Consider “SMSREELREYARAHPDRPLALILPGKKTLLLFDPATGAEREEDITSVEEAKERLAAQPVAVVEVVSAELLSA [r9_775_JUSTAS]”, for which the “folding stability dG unfold” value in data set [1] was -0.439 ± 0.37 kcal/mol; in data set [2], 0.499 ± 0.085 kcal/mol; in data set [3] it was 0.294 ± 0.11 kcal/mol.
For “SMSTNLVVKEKLIPPGVLVVTYKKDGKPVKVETKVVVIPPQLVVEEVLYPGGKLALKTYDPLTGTPSFELSA [r9_343_JUSTAS]”, in that order: -0.122 ± 0.14 kcal/mol, 0.644 ± 0.28 kcal/mol and 0.337 ± 0.29 kcal/mol.
For “SMSVEISVPPTNPGASPEEIAAALAAKGRPVEVVSVSEDPSTGTRTVTIAVRAPDGTLEETVVVNAPVGVSA [r9_879_JUSTAS]”, in that order: 0.495 ± 0.057 kcal/mol, -0.772 ± 0.33 kcal/mol and 0.0853 ± 0.12 kcal/mol.
As for “SMSYTVTVEYPDTGKTTTTPIPPDALEVSVSLSGPSTIRITITTDVNGATTTTTSTVTLPPPALPPSTLLSA [r9_1067_JUSTAS]”, the “folding stability dG unfold” value in data set [1] amounted to 1.11 ± 0.097 kcal/mol; in data set [2], 0.927 ± 0.28 kcal/mol; in data set [3] it was 1.06 ± 0.22 kcal/mol.
For “SMTAEEIAERLARALEEAGIRRVEVEVTVEYDPETDEVTVTVTIRVEPAPEAPPEEEEERREREEREAEESA [r9_440_TrROS_Hall]”, in that order: 2.26 ± 0.057 kcal/mol, 2.43 ± 0.09 kcal/mol and 2.31 ± 0.11 kcal/mol.
For “SMTAEVTLTIVYPDGTSTTLPMTFPADDPEALRAAIRAAVAAAGYTPTALQMTFTAQPDGSVRVDVTVTVAS [r1_281_JUSTAS]”, in that order: 4.1 ± 0.059 kcal/mol, 5.7 ± 0.066 kcal/mol and 5.61 ± 0.077 kcal/mol.
For “SMTFVLPYPKEGKTITVTYPDLESAVSSSGVATFQDPALLAQVIAALPSSVIVKEIKKNPDGTYTLTVAASA [r9_997_JUSTAS]”, in that order: 0.773 ± 0.043 kcal/mol, -0.066 ± 0.24 kcal/mol and 0.483 ± 0.1 kcal/mol.
Take “SMTIEIEVDGKTVTVEIDPKTGKIKKVVVKDKETGEWKELSDEEIEKLLKELEDELREKREKLEKEGKEPSA [r9_368_TrROS_Hall]”: the “folding stability dG unfold” value in data set [1] was 2.32 ± 0.24 kcal/mol; in data set [2], 2.5 ± 0.18 kcal/mol; in data set [3], 2.53 ± 0.25 kcal/mol.
For “SMTIERHPDKLTVRVPAAFSTVPEVVRFLKELGFELPPGVKDVRVEDVEPGARVVRVTVHFDDPEALERLSA [r9_820_TrMRF]”, in that order: 1.97 ± 0.024 kcal/mol, 1.58 ± 0.049 kcal/mol and 1.81 ± 0.031 kcal/mol.
